Experimental findings from article PMC9704693 are described below.

For the test, the target named is extracellular fragment of lymphotoxin-beta receptor (LTβR) (629-LR-100, R&D Systems) (UniProt P36941). Nature of the test: SPR.

pKd: −log10 of the molar value.

Take “Ixodes persulcatus salivary protein (IpSAP), recombinant (natural protein)”: the pKd was 6.91.

In general, pKd refers to the Kd on a negative log10 scale, so that one unit is a factor of ten. Low values mean a large Kd, high ones a small Kd.
